According to publication PMC9916804:

target: gametogenesis essential protein 1 (GEP1), truncation GEP1^192-905, Strep-tagged (Plasmodium yoelii); test: pull-down; mutants of mEGFP-GCα^2301-3850 with Strep-tagged GEP1^192-905 on Strep-Tactin beads; GFP intensity of the eluates against WT; whether co-expressed or mixed is not stated; settings: not given

Row | Substance | GFP intensity of the pull-down eluate, percent of WT
1 | GCα^2301-3850 (GCα-C) Q2755A, mEGFP-tagged (domain or fragment) | 49.2 % of WT

target: gametogenesis essential protein 1 (GEP1), truncation GEP1^192-905, Strep-tagged; test: pull-down (Strep-Tactin beads), GFP intensity of elution; parameters: reference not given here; settings: co-expression of GEP1-192-905 and GCα-2301-3850; parent: est. 100; read off a plot

Row | Substance | percent of parent [%]
2 | guanylate cyclase α C-terminal half, GCα^2301-3850, with N-terminal mEGFP D3598A | 110
3 | guanylate cyclase α C-terminal half, GCα^2301-3850, with N-terminal mEGFP D3642V | 100
4 | guanylate cyclase α C-terminal half, GCα^2301-3850, with N-terminal mEGFP E2794A | 80
5 | guanylate cyclase α C-terminal half, GCα^2301-3850, with N-terminal mEGFP N3724W | 110
6 | guanylate cyclase α C-terminal half, GCα^2301-3850, with N-terminal mEGFP S2910W | 74
